Measurements as given in the nanobody polyreactivity screen of Harvey et al. (2022).

experiment: yeast display, Sf9 membrane polyspecificity reagent, FACS + sequencing; frameworks hold sequencing errors
Outline: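 Genes from sorted yeast were amplified by colony PCR, read by MiSeq 2 × 250 sequencing and filtered on CDR length. These cells carried a synthetic nanobody library in Saccharomyces cerevisiae BJ5465 and were sorted by FACS into low and high (top ~1%) gates on anti-HA and streptavidin fluorescence. Polyreactivity is labelled according to the gate of origin.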

Sequence	polyreactivity (PSR sort gate)
QVQLVESGGGLVQAGGSLRLSCAASGSILQPIYAMGWYRQAPGKERELVAAISASGGSTYYADSVKGRFTISRDNAKNTVYLQMNSLKPEDTAVYYCNKVGYYASVLGYDYWGQGTQVTVSS	high polyreactivity
QVQLVESGGGLVQAGGSLRLSCAASGSILRKYAMGWYRQAPGKERELVAAISWSGGSTYYADSVKGRFTISRDNAKNTVYVQMNSLKPEDTAVYYCNRDGLSRPYYYWGQGTQVTVSS	high polyreactivity
QVQLVESGGGLVQAGGSLRLSCAASGSILRSNAMGWYRQAPGKERELVAAITFNGGSTYADSVKGRFTISRDNAKNTVYLQMNSLKPEDTAVYYCATGDGPSLFDYWGQGTQVTVSS	low polyreactivity
QVQLVESGGGLVQAGGSLRLSCAASGSILRYYAKGWYRQAPGKERELVASINWSGGSTYYADSVKGRFTISRDNAKNTVYLQMNSLKPEDTAVYYCAARRRSAEYNYWGQGTQVTVSS	high polyreactivity
QVQLVESGGGLVQAGGSLRLSCAASGSILSAYDMGLYRKAPGKDRELVAAIHSSGGSTYYADSVKGRFTISRDNAKNTVYLQMNSLKPEDTAVYYCAATSLAGYYQFDYWGQGTQVTVSS	low polyreactivity
QVQLVESGGGLVQAGGSLRLSCAASGSILSFNAMGWDRQAPGNERELVAAISRGGSTNYADSVKGRFTISRDNAKNTVYLQMNSLKPEDTAVYYCAAVQYRYSTRWARRAYDYWGQGTQVTVSS	high polyreactivity
QVQLVESGGGLVQAGGSLRLSCAASGSILSPYAMGWYRQAPGKERELVAAISRSGDRTYYADSVKGRFTISRDNAKNTVYLQMNSLKPEDTAVYYCAAEYSWPWDYYYWGQGTQVTVSS	high polyreactivity
QVQLVESGGGLVQAGGSLRLSCAASGSILTDNAMGWYRQAPGKERELVASITGSGGSTYYADSVKGRFTISRDNAKNSVYLQMNSLKRVDTAVYYCAASYRLRYGYWGQGTQVTVSS	high polyreactivity
QVQLVESGGGLVQAGGSLRLSCAASGSILTENAMGWYRQAPGKERELVAAISRSGGRTYYADSVKGRFTISRDNAKNTVYLQMNSLKPEDTAVYYCAAEYWTVGYYYSLESDYWGQGTQVTVSS	low polyreactivity
QVQLVESGGGLVQAGGSLRLSCAASGSILTFYAMGWYRQAPGKERELVAAITWRGGSTYYAYSVKGRFTISRDNAKNTVYLQMNSLKPEDTAVYYCAAEQVGYYLNWRDYWGQGTQVTVSS	high polyreactivity
QVQLVESGGGLVQAGGSLRLSCAASGSILTPNAMGWYRQAPGKERELVATISKGGGRTYYADSVKGRFTISRDNAKNTVYLQMNSLKPEDTAVYYCAADARRNSPGNYWGQGTQVTVSS	high polyreactivity
QVQLVESGGGLVQAGGSLRLSCAASGSILTPYAMGWYRQAPGKERELVAAISWGDGSTYYADSVKGRFTISRDNAKNTVYLQMNSLKPEDTAVYYCAAVSYYGVDQYRITVYTYEYWGQGTQVTVSS	low polyreactivity
QVQLVESGGGLVQAGGSLRLSCAASGSILTYYAMGWYRQAPGKERELVAAINNIGGSTYYADSVKGRFTISRDNAKNTVYLQMNSLKPEDTAVYYCAKYYAWPYDYWGQGTQVTVSS	low polyreactivity
QVQLVESGGGLVQAGGSLRLSCAASGSILVNAIGWYRQAPGKEREFVAAISSGGSTKYADSVKGRFTMSRDNATNTDYLLMNSLKPEDTEVYYCAARVVTSRLSGGTTHPFILYYWGQGTQVTVSS	high polyreactivity
QVQLVESGGGLVQAGGSLRLSCAASGSILVPNAMGWYRQAPGKERELVAGISANGGSTYYADSVKGRFTISRDNANNTVYLQMNSLKPEDTAVYYCNARLYWDWYGDDYWVQGTQVTVSS	low polyreactivity
QVQLVESGGGLVQAGGSLRLSCAASGSILWYNGLGWYRQAPGKEMELVAAITSGGSTNYADSVKGRFTISRDNAKNTVYLQMNSLKQEDTAVYYCATRHSKYGYEYDYWGQGTQVTVSS	low polyreactivity
QVQLVESGGGLVQAGGSLRLSCAASGSILWYYAMGWDRQAPGKERELVATITSGGSTYYADSVKGRFTISRDNAKNSVYLQMNSLKPEDTAVYYCNADLAVDEYDYWGQGTQVTVSS	low polyreactivity
QVQLVESGGGLVQAGGSLRLSCAASGSILYGNAMGWYRQAPGKERELVAAISWRGGRTYYADSVKGRFTISRDNAKNTVYLQMNSLKPEDTAVYYCAAQIGLVSGRDYWGQGTQVTVSS	high polyreactivity
QVQLVESGGGLVQAGGSLRLSCAASGSILYGNDMGWYRQAPGKERELVANITSSDSTYYADSVKGRFTISRDNAKNTVYLQMNSLKPEDTAVYYCASDDVGWGYYVYSYPYDYWGQGTQVNVSS	low polyreactivity
QVQLVESGGGLVQAGGSLRLSCAASGSILYLNAMGWYRQAPGKERELVASISSSGGNTYYADSVTGRFTISRDNAKNTVYFQMNSLKPEDTAVYYCNTRWVHRDWYDYWGQGTQVTVSS	high polyreactivity
QVQLVESGGGLVQAGGSLRLSCAASGSILYLNAMGWYRQAPGKERELVATISNGGSTNYADSVKGRFTISRDNAKNTVYLQMNSLKPEDTAVYYCAAASGGTVVGEGDYWGQGTQVTVSS	low polyreactivity
QVQLVESGGGLVQAGGSLRLSCAASGSILYPNAMGWYRQAPGKERELVAAISTSGGSTYYADSVKGRFTLSRDNAKNTVYLQMNSLKPEDTAVYYCAKGWIYYSTWISEYWGQGTQVTVSS	low polyreactivity

Sequence	polyreactivity (PSR sort gate)
QVQLVESGGGLVQAGGSLRLSCAASGSILYRYTMGWYRLAPGTERELVAAITKRGGRTYYADSVKGRITISRDNAMNTVYLQMNSLKPEDTAVFYCYALLTGGYQDSYPDDYWGQGTHVTVSS	high polyreactivity
QVQLVESGGGLVQAGGSLRLSCAASGSILYRYTMGWYRPAPGKERELVAAITKRGGRTYYADSVKGRFTISRDNAKNTVYLQMNSLKPEDTAVYYCAAKYYTGGSFEMYYGGQGTQVTVSS	high polyreactivity
QVQLVESGGGLVQAGGSLRLSCAASGSILYYYVMGWYRQAPGKERELVAAITSGGSTYYADSVKGRFTISRDNAKYTVYFQMIILKPEDTAVFYCAVGYVLTGVFQARFDYWGQGTQVNVSS	high polyreactivity
QVQLVESGGGLVQAGGSLRLSCAASGSIMGWYRQAPGKERELVAAISRGGSTYYADSVKGRFTISRDNAKNTVYLQMNSLKPEDTAVYYCAAKTGGSRSRFEYWGQGTQVTVSS	high polyreactivity
QVQLVESGGGLVQAGGSLRLSCAASGSIRSYAMGWYRQAPGKERELVAAITRSGGSTYYADSVKGRFTISRDNAKITVYLQMNSLKPEDTAFYYCAARYTYSYPLFGSWGQGTQVTVSS	high polyreactivity
QVQLVESGGGLVQAGGSLRLSCAASGSIRSYAMGWYRQAPGKERELVAAITRSGGSTYYADSVKGRFTISRDNAMNTVYLQMNSLKPEDTAVYYCAARYTYSYPLFGSWGQGTQVTVSS	high polyreactivity
QVQLVESGGGLVQAGGSLRLSCAASGSIRYYAMGWYRPAPGKERELVAGITRNGGSTYYADSVKGRFTISRDNAKNTVYLQMNSLKPEDTAVYYCAAGFTTRRGEYNYWGQGTQVTVSS	high polyreactivity
QVQLVESGGGLVQAGGSLRLSCAASGSIRYYAMGWYRQAPGKERELVAAISSRGTNTYYADSVKGRFTISRDNAKNTVYLQMNSLKPEDTAVYYCIAVVGLGYNYWGQGTQVTVSS	high polyreactivity
QVQLVESGGGLVQAGGSLRLSCAASGSISDTYGLGWYRQAPGKERELVASITWSSGSTDYADSVKGRFTISRDNAKNTVYLQMNSLKPEDTAVYYCATYEPFYSFFFRGIYDYWGQGTQVTVSS	low polyreactivity
QVQLVESGGGLVQAGGSLRLSCAASGSISDVYAMGWYRQAPGKERELVAAITSGASTYYADSVKGRFTISRDNAKNTVYLQMNSLKPEDTAVYYCAADSDSQWGMDYWGQGTQVTVSS	low polyreactivity
QVQLVESGGGLVQAGGSLRLSCAASGSISFINAMGWYRQAPGKERELVAAISGSGGSTYYADSVKGRFTISRDNAKNTVYLQMNSLKPEDTAVYYCAADYRIHWYIAYGYWGQGTQVTVSS	low polyreactivity
QVQLVESGGGLVQAGGSLRLSCAASGSISFSNAMGWYRQAPGKERELVAAISWSGGRTYYADSVKGRCTISRDNAKNTVYLQMNSLKPEDTAVYYCAADDFRYGRQVLGLNDYNYWGLGTQVTVSS	low polyreactivity
QVQLVESGGGLVQAGGSLRLSCAASGSISGWYAMGWYRQAPGKERELVADISSIAGSTYYADSVKGRFTISRDNAKNTVYLQMNSLKPEDTAVYYCAADDAAWPYSWWGFDYWGQGTQVTVSS	low polyreactivity
QVQLVESGGGLVQAGGSLRLSCAASGSISGYYAMGWYRQAPGKESELVASIRYTGARTYYADSVKGRFTISRDNAKNTVYLQMNSLKPEDTAVYYCAADVKRDRVWGGDYWGQGTQVTVSS	low polyreactivity
QVQLVESGGGLVQAGGSLRLSCAASGSISGYYDMGWYRQAPGKEREFVAAISLSTTSTYYADSVKGRFTISRDNAKNTVYLQMNSLKPEDTAVYYCATDIVGPHFDYWGQGTQVTVSS	low polyreactivity
QVQLVESGGGLVQAGGSLRLSCAASGSISGYYDMGWYRQAPGKERELVAASSWNGADTYYADSVKGRFTISRDNAKNTVYLQMNSLKPEDTAVYYCAAERENGDHYRYYYWGQGTQVNVSS	low polyreactivity
QVQLVESGGGLVQAGGSLRLSCAASGSISIKNAMGWYSQAPGKERELVATITYNGGSTYYADSVKGRFTISRDNAKNTVYLQMNSLKPEDTAVYYCSAGYLYYAEYDYWGQGTQVTVSS	low polyreactivity
QVQLVESGGGLVQAGGSLRLSCAASGSISKGYAMGWYRQAPGKERELVARISGDGGSTYYADSVKGRFTISRDNAKNTVYLQMNSLKPEDTAVYYCNARAYYGIRYYSWGQGTQVTVSS	high polyreactivity
QVQLVESGGGLVQAGGSLRLSCAASGSISKINAMGWYRQAPGKERELVAAINTGDSTYYADSVKGRFTISRDNAKNTVYLQMNCLKPEDTAVYYCAAEGSPTGYDYWGQGTQVTVSS	low polyreactivity
QVQLVESGGGLVQAGGSLRLSCAASGSISLAYAMGWYRQAPGKERELVAAISFRTGRTFYADSVKGRFTISRDNAKNTVYLQMNSLKPEDTAVYYCAAENLDFYFEEYWGQGTQVTVSS	high polyreactivity
QVQLVESGGGLVQAGGSLRLSCAASGSISPQNVMGWYRQAPGKERELVAAITGGGSTNYADSVKGRFTISRDNAKQTVYLQLNSLKPEDTAVYYCNADYFQDRLDYWGQGTQVTVSS	low polyreactivity
